The experiment concerns the target T1, human complement component C1q (human, UniProt P02745 23-245; P02746 28-253; P02747 29-245).
T1 construct: complement C1q subcomponent subunit A, human; complement C1q subcomponent subunit B, human; complement C1q subcomponent subunit C, human; Detected with fluorescent anti-C1q; also called complement C1q; source: bought: Sigma (C1740); copies: + +
Briefly: glycan array; AEAB-labelled D. immitis neutral N-glycan pool printed on NHS-modified glass slides; incubated first with human CRP (5 µg/ml), then serially with C1q and fluorescent anti-C1q; fluorescence read-out, mean of 10 spots. The following applies: both partners purified.

Data on one molecule can be found in publication PMC6325117, “Highly modified and immunoactive N-glycans of the canine heartworm” (Nature Communications, 2019).

T1 sequence (P02745 23-245, chain 1 of 3): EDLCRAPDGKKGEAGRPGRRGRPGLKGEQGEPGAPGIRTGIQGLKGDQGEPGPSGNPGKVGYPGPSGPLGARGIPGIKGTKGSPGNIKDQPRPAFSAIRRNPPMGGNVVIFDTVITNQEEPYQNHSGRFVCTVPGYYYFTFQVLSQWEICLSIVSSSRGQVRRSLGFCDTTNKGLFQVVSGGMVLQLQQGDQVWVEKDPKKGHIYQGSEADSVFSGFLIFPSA
T1 sequence (P02746 28-253, chain 2 of 3): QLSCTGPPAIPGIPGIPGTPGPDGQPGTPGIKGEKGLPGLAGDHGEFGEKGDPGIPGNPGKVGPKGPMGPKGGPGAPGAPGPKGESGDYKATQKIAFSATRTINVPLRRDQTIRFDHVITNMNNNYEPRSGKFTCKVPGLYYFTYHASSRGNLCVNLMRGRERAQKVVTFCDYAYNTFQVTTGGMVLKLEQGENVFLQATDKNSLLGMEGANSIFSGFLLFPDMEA
T1 sequence (P02747 29-245, chain 3 of 3): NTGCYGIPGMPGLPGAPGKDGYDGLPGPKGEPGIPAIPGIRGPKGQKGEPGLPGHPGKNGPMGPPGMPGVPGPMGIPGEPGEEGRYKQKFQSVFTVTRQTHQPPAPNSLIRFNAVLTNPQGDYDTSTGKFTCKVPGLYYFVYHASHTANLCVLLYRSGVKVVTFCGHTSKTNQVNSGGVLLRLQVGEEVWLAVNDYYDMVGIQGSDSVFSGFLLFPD

B1: natural human C-reactive protein (natural protein, UniProt P02741 19-224, looked up)
chain: QTDMSRKAFVFPKESDTSYVSLKAPLTKPLKAFTVCLHFYTELSSTRGYSIFSYATKRQDNEILIFWSKDIGYSFTVGGSEILFEVPEVTVAPVHICTSWESASGIVEFWVDGKPRVRKSLKKGYTVGAEASIILGQEQDSFGGNFEGSQSLVGDIGNVNMWDFVLSPDEINTIYLGGPFSPNVLNWRALKYEVQGEVFTKPQLWP
notes: C-reactive protein, human, natural; called pentameric in the discussion; also called CRP; human pentraxin C-reactive protein; source: bought: MPBio (215231505)
As to B1, the binding result is on record as “binds”.
